Results as given in publication PMC6173745, “Aberrant expression of CITED2 promotes prostate cancer metastasis by activating the nucleolin-AKT pathway” (Nature Communications, 2018).

Assays:
[1] = biological target: T1, Human recombinant protein NCL (human, UniProt P19338 1-710); test: co-IP; in vitro binding assay: recombinant proteins CITED2, PRMT5, NCL and P300 put together in a test tube, immunoprecipitated with the indicated antibodies, immunoblotted; details: both partners purified
T1 construct: Nucleolin, human, recombinant protein bought from Origene; No catalogue number, host, tag or limits are printed; also called nucleolin; source: bought: Origene
T1 sequence (P19338 whole entry): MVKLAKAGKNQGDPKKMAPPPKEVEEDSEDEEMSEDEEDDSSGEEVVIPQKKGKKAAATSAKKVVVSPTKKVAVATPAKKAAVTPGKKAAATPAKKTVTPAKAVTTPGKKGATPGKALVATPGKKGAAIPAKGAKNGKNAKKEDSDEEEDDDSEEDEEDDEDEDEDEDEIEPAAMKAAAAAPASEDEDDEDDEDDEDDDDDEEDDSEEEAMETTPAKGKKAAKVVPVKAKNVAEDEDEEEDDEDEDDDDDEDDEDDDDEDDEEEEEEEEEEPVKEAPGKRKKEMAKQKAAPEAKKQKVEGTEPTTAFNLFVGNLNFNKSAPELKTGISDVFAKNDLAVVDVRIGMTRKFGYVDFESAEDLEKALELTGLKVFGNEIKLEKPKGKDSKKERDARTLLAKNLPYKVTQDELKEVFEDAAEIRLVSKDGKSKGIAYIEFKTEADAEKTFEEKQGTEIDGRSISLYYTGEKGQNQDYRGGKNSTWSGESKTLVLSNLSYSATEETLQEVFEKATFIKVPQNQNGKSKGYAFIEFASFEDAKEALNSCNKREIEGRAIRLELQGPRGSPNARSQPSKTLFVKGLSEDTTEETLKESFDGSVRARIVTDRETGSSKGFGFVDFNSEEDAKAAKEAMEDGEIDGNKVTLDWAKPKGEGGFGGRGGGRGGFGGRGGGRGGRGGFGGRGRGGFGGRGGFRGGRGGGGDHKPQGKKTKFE

[2] = biological target: T2, Human recombinant protein PRMT5 (human, UniProt O14744 1-637); test: as above; details: both partners purified
T2 construct: PRMT5, human, recombinant protein bought from Origene; No catalogue number, host, tag or limits are printed; source: bought: Origene
T2 sequence (O14744 whole entry): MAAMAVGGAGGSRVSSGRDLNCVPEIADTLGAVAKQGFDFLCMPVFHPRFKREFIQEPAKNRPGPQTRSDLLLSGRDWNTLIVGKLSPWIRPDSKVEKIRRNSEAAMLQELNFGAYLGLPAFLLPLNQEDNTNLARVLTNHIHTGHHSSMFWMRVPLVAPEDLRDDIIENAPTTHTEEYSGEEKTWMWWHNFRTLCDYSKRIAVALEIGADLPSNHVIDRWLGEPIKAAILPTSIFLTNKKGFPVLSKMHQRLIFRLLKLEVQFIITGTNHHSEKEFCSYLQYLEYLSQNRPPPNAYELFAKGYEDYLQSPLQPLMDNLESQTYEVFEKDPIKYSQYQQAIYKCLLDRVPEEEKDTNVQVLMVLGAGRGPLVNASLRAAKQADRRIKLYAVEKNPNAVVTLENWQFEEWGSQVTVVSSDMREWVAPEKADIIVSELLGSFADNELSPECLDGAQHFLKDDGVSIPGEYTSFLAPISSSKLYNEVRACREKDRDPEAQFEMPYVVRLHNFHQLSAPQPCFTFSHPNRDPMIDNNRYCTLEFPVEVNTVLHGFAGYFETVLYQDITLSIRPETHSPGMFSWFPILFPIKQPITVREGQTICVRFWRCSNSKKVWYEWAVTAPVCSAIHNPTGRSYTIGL

binding result [1]: binds
binding result [2]: binds
B1: Human recombinant protein CITED2 (natural protein, UniProt Q99967 1-270, looked up)
chain: MADHMMAMNHGRFPDGTNGLHHHPAHRMGMGQFPSPHHHQQQQPQHAFNALMGEHIHYGAGNMNATSGIRHAMGPGTVNGGHPPSALAPAARFNNSQFMGPPVASQGGSLPASMQLQKLNNQYFNHHPYPHNHYMPDLHPAAGHQMNGTNQHFRDCNPKHSGGSSTPGGSGGSSTPGGSGSSSGGGAGSSNSGGGSGSGNMPASVAHVPAAMLPPNVIDTDFIDEEVLMSLVIEMGLDRIKELPELWLGQNEFDFMTDFVCKQQPSRVSC
notes: CITED2, human, recombinant protein bought from Origene; No catalogue number, host, tag or limits are printed; source: bought: Origene
